Experimental data: PMC2700308 (Biochemistry, 2009)
Square brackets hold non-standard residues; d marks the D form. Ends that are not written are not given here. sY = N[C@@H](Cc1ccc(OS(=O)(=O)O)cc1)C(=O)O

Molecular target: Full-length gp120 from the subtype B YU2 HIV-1 strain (HIV-1, subtype B, strain YU2, UniProt P35961 32-498)
Test: ITC

B1: S22 peptide, 22 amino acid tyrosine-sulfated peptide corresponding to the CCR5 N-terminus (peptide)
peptide: MDYQVSSPI[sY]DIN[sY]YTSEPSQK
Kd: ≥ 1000 µM
